Our source for the Kd values is PMC11653366 (2024).

T1: F*-PLLP
T1 chain: LASRPLPLLP

B1: SrcAbl SH3 84-145 (protein)
chain: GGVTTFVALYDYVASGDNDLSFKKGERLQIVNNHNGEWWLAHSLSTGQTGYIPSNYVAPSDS
B2: F*-p40 (peptide)
chain: APTYSPPPPP
B3: AblSrc SH3 SH3 (protein)
chain: PSENDPNLFVALYDFESRTETTLSITKGEKLRVLGYNTEGDWCEAQTKNGQGWVPSNYITPVNSLEK

Common to all, as to assay: fluorescence anisotropy
(In general: Fluorescence polarisation rises when a labelled molecule tumbles more slowly, as on binding a larger partner.)

One experiment concerns the target T1, F*-PLLP.
The experiment “F*-p40” concerns the target B2.
The next experiment addresses Src SH3 84-145 (Homo sapiens, UniProt P12931).

The term Kd denotes a measure of binding affinity in units of concentration. A high value points to a looser complex. Take B1: the dissociation constant Kd with F*-PLLP is 140 µM; in the experiment with F*-p40 it was 130 µM.

Consider B2, for which the Kd in the experiment with Src SH3 84-145 was over 1000 µM.

As for B3, the Kd in the experiment with F*-PLLP was over 1000 µM; with F*-p40, 210 µM.
